Experiments:
[1] = biological target: activated human complement C1s (UniProt P09871); test: direct binding
[2] = biological target: activated human complement C1s (UniProt P09871); test: competition binding with 50 pM biotinylated TNT005

Chain of activated human complement C1s (P09871 16-688): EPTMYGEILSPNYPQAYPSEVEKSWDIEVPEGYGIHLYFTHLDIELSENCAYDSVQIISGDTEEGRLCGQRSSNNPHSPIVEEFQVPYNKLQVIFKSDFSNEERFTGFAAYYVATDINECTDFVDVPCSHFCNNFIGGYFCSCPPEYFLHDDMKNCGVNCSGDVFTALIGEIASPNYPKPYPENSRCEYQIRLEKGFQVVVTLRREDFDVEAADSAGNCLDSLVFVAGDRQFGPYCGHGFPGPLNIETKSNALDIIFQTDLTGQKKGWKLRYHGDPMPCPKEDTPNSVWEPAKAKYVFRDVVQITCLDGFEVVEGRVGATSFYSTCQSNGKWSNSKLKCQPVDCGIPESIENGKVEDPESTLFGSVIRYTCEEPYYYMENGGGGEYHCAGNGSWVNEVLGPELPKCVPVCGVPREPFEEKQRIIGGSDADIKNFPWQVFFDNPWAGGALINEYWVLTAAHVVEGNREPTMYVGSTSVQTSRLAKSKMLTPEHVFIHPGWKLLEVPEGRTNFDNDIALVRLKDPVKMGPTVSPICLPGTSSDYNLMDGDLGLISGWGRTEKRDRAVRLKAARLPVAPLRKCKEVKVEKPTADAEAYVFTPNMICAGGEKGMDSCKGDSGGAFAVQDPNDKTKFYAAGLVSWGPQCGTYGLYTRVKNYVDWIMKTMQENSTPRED

TNT005
EC50 [1]: 0.0559 nM | IC50 [2]: 0.0395 nM
